One molecule from publication PMC3319870 (New Biotechnology, 2011) can be followed below.

For the assay, the target named is Fyn SH3 domain, His6-tagged SUMO fusion (human, UniProt P06241 82-143). As to the kind of experiment: ELISA.
Sequence of Fyn SH3 domain, His6-tagged SUMO fusion (P06241 82-143): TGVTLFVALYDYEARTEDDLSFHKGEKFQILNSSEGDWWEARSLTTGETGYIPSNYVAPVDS

Turning to VSLARRPLPPLPGGK [proline-rich peptide VSLARRPLPPLPGGK], the concentration for half-maximal inhibition (IC50) was about 440 nM.
